Results reported in patent US20160136234A1.

Columns and labels:
Assay in all cases: cell-based or functional assay
[1] = target: Pyk2 (h) (human) (UniProt Q14289)
[2] = target: T1, Flt1 (h) (human) (UniProt P17948)
T1 sequence (looked up): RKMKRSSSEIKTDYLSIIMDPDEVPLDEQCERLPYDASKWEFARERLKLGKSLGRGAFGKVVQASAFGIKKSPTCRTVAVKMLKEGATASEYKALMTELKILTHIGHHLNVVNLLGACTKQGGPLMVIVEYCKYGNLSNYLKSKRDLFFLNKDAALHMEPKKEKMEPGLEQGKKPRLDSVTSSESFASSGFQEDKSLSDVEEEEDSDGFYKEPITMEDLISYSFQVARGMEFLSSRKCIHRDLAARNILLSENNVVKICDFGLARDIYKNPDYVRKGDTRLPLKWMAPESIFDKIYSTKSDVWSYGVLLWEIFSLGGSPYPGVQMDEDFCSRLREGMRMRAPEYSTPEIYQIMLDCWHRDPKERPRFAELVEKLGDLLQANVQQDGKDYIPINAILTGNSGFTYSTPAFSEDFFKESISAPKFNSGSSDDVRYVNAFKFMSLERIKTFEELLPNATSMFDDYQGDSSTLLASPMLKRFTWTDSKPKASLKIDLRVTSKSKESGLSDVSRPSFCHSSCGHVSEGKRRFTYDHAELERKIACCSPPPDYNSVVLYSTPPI

[3] = target: T2, GRK7 (h) (human) (UniProt Q8WTQ7)
T2 sequence (looked up): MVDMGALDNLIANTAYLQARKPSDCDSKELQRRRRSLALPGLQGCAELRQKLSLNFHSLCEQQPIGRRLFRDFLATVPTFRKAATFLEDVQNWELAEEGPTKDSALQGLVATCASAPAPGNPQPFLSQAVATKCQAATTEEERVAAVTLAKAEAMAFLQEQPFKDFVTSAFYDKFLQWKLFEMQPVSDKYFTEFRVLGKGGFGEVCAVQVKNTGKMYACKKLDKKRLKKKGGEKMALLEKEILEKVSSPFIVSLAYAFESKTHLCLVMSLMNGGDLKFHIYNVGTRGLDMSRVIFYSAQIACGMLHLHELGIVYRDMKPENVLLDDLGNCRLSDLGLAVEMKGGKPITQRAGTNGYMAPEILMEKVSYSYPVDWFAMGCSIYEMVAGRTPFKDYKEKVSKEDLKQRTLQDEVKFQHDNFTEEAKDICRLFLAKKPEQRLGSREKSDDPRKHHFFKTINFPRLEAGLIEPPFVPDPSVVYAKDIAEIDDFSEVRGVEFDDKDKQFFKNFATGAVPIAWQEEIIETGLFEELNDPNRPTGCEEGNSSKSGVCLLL

% activity at 100 µM [1]: 47%
% activity at 100 µM [2]: 69%
% activity at 100 µM [3]: 122%
Substance: MMI-0300 (peptide)
